# Test results taken from patent US20250019444A1 (published 2025).
# B1: soluble mouse Fc-human NKG2D dimer (Fc fusion, UniProt P26718 73-216, looked up)
# chain: IWSAVFLNSLFNQEVQIPLTESYCGPCPKNWICYKNNCYQFFDESKNWYESQASCMSQNASLLKVYSKEDQDLLKLVKSYHWMGLVHIPTNGSWQWEDGSILSPNLLTIIEMQKGDCALYASSFKGYIENCSTPNTYICMQRTV
# notes: also called mFc-hNKG2D; fusion protein of human NKG2D and murine Fc; not shown: murine Fc
# Target: T1, ULBP6 (NKG2D natural ligand) (Homo sapiens (Human), UniProt Q5VY80 26-218)
# T1 sequence: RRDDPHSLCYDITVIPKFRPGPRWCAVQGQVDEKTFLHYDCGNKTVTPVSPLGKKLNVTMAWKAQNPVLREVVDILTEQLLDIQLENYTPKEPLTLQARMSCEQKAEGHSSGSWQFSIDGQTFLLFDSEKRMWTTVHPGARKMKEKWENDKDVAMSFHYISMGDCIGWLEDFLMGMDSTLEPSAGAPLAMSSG
# Assay: SPR, injection over captured mouse Fc-human NKG2D, 25 C
# From the text: Briefly, mouse Fc-human NKG2D was captured using an anti-mouse Fc antibody immobilized on a CM5 chip at a density of approximately 100 RU. […] Biacore 8K evaluation software was used for all data analysis.
binder,measurement,value
B1,binding result,binds
